Tests used:
[1] = test system: MDA-MB-231 cell surface (target molecule unidentified, whole cells) (Homo sapiens?); assay: flow
[2] = test system: MDA-MB-231 cell surface (target molecule unidentified, whole cells); assay: flow; conditions: apparent Kd on whole cells

In the case of “TCCCGAGTGACGCAGCCCCCGGCGGGATTAATCGGTGGACACGGTGGCTGAC [C23-A30]”, the Kd ([1]; no binding at 250 nM) is reported as greater than 1000 nM.
For “TCCCGAGTGACGCAGCCCCCGGCGGGATTGATCGGTGGACACGGTGGCTGAC [C23-G30]”, the Kd ([1]; no binding at 250 nM) was greater than 1000 nM.
“TCCCGAGTGACGCAGCCCCCGGCGGGATTNATCGGTGGACACGGTGGCTGAC [C23-P30]” was tested, and the Kd ([2]; n at 30 is P) was 160 nM.
For “TCCCGAGTGACGCAGCCCCCGGNGGGATTAATCGGTGGACACGGTGGCTGAC [Z23-A30]”, the Kd ([1]; n at 23 is Z, reduced binding at 250 nM, almost no binding in titration) was greater than 1000 nM.
With “TCCCGAGTGACGCAGCCCCCGGNGGGATTGATCGGTGGACACGGTGGCTGAC [Z23-G30]” the Kd ([2]; n at 23 is Z) was 442 nM.
“TCCCGAGTGACGCAGCCCCCGGTGGGATTAATCGGTGGACACGGTGGCTGAC [T23-A30]” was tested, and the Kd ([1]; no binding at 250 nM) was greater than 1000 nM.
“TCCCGAGTGACGCAGCCCCCGGTGGGATTGATCGGTGGACACGGTGGCTGAC [T23-G30]” was tested, and the Kd ([1]; no binding at 250 nM) was greater than 1000 nM.
For “TCCCGAGTGACGCAGCCCCCGGTGGGATTNATCGGTGGACACGGTGGCTGAC [T23-P30]”, the Kd ([1]; n at 30 is P, no binding at 250 nM) was greater than 1000 nM.
For “TCCCGAGTGACGCAGCCCCCGGZGGGATTPATCGGTGGACACGGTGGCTGAC [ZAP-2012 (Z23-P30)]”, the Kd ([2]; AEGIS DNA, Z at 23 (6-amino-5-nitro-3-(2'-deoxyribosyl)-2(1H)-pyridone), P at 30 (2-amino-8-(2'-deoxyribosyl)-imidazo[1,2-a]-1,3,5-triazin-4(8H)one), SEQ 7/16, DPBS, 5 mM MgCl2, glucose, tRNA, BSA, 10% FBS, library background subtracted) was 30 nM.
